# Measurements taken from US12099068B2, “Biomarkers for graft-versus-host disease” (Incyte Corporation, priority 2018, dated 2024).
# System: plasma proteins
# Assay: Plasma proteins modulated between baseline and day 28 in responders (CR, VGPR, PR; n = 19), Example 6 (Table 13)
# Format: in vivo, human
# Details: plasma protein (OLINK NPX); responders (CR, VGPR, PR; n = 19); itacitinib 200 mg or 300 mg QD with corticosteroids; day 28 vs baseline
# Summary of the method: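 Longitudinal comparison, day 28 versus baseline, with steroid-naive (N=10) and steroid-refractory (N=18) patients combined. Proteins measured by OLINK proximity extension, log2 normalized protein expression. Differences tested by t tests, ANOVA, Pearson correlation, P<0.05 significant.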
Molecule,"Fold Change, Decreased Expression from Baseline to Day 28","Fold Change, Increased Expression from Baseline to Day 28"
"SIGLEC10 (protein, UniProt Q96LC7 17-697, looked up) Sialic acid-binding Ig-like …: MDGRFWIRVQESVMVPEGLCISVPCSFSYPRQDWTGSTPAYGYWFKAVTETTKGAPVATNHQSREVEMSTRGRFQLTGDPAKGNCSLVIRDAQMQDESQYFFRVERGSYVRYNFMNDGFFLKVTALTQKPDVYIPETLEPGQPVTVICVFNWAFEECPPPSFSWTGAALSSQGTKPTTSHFSVLSFTPRPQDHNTDLTCHVDFSRKGVSAQRTVRLRVAYAPRDLVISISRDNTPALEPQPQGNVPYLEAQKGQFLRLLCAADSQPPATLSWVLQNRVLSSSHPWGPRPLGLELPGVKAGDSGRYTCRAENRLGSQQRALDLSVQYPPENLRVMVSQANRTVLENLGNGTSLPVLEGQSLCLVCVTHSSPPARLSWTQRGQVLSPSQPSDPGVLELPRVQVEHEGEFTCHARHPLGSQHVSLSLSVHYSPKLLGPSCSWEAEGLHCSCSSQASPAPSLRWWLGEELLEGNSSQDSFEVTPSSAGPWANSSLSLHGGLSSGLRLRCEAWNVHGAQSGSILQLPDKKGLISTAFSNGAFLGIGITALLFLCLALIIMKILPKRRTQTETPRPRFSRHSTILDYINVVPTAGPLAQKRNQKATPNSPRTPLPPGAPSPESKKNQKKQYQLPSFPEPKSSTQAPESQESQEELHYATLNFPGVRPRPEARMPKGTQADYAEVKFQ",−1.4974,–
"FCRL5 (protein, UniProt Q96RD9 16-977, looked up) Fc receptor-like protein 5: QFARTPRPIIFLQPPWTTVFQGERVTLTCKGFRFYSPQKTKWYHRYLGKEILRETPDNILEVQESGEYRCQAQGSPLSSPVHLDFSSASLILQAPLSVFEGDSVVLRCRAKAEVTLNNTIYKNDNVLAFLNKRTDFHIPHACLKDNGAYRCTGYKESCCPVSSNTVKIQVQEPFTRPVLRASSFQPISGNPVTLTCETQLSLERSDVPLRFRFFRDDQTLGLGWSLSPNFQITAMWSKDSGFYWCKAATMPYSVISDSPRSWIQVQIPASHPVLTLSPEKALNFEGTKVTLHCETQEDSLRTLYRFYHEGVPLRHKSVRCERGASISFSLTTENSGNYYCTADNGLGAKPSKAVSLSVTVPVSHPVLNLSSPEDLIFEGAKVTLHCEAQRGSLPILYQFHHEGAALERRSANSAGGVAISFSLTAEHSGNYYCTADNGFGPQRSKAVSLSVTVPVSHPVLTLSSAEALTFEGATVTLHCEVQRGSPQILYQFYHEDMPLWSSSTPSVGRVSFSFSLTEGHSGNYYCTADNGFGPQRSEVVSLFVTVPVSRPILTLRVPRAQAVVGDLLELHCEAPRGSPPILYWFYHEDVTLGSSSAPSGGEASFNLSLTAEHSGNYSCEANNGLVAQHSDTISLSVIVPVSRPILTFRAPRAQAVVGDLLELHCEALRGSSPILYWFYHEDVTLGKISAPSGGGASFNLSLTTEHSGIYSCEADNGLEAQRSEMVTLKVAVPVSRPVLTLRAPGTHAAVGDLLELHCEALRGSPLILYRFFHEDVTLGNRSSPSGGASLNLSLTAEHSGNYSCEADNGLGAQRSETVTLYITGLTANRSGPFATGVAGGLLSIAGLAAGALLLYCWLSRKAGRKPASDPARSPSDSDSQEPTYHNVPAWEELQPVYTNANPRGENVVYSEVRIIQEKKKHAVASDPRHLRNKGSPIIYSEVKVASTPVSGSLFLASSAPHR",−1.3113,–
"SKAP1 (protein, UniProt Q86WV1 1-359, looked up) Src kinase-associated …: MQAAALPEEIRWLLEDAEEFLAEGLRNENLSAVARDHRDHILRGFQQIKARYYWDFQPQGGDIGQDSSDDNHSGTLGLSLTSDAPFLSDYQDEGMEDIVKGAQELDNVIKQGYLEKKSKDHSFFGSEWQKRWCVVSRGLFYYYANEKSKQPKGTFLIKGYGVRMAPHLRRDSKKESCFELTSQDRRSYEFTATSPAEARDWVDQISFLLKDLSSLTIPYEEDEEEEEKEETYDDIDGFDSPSCGSQCRPTILPGSVGIKEPTEEKEEEDIYEVLPDEEHDLEEDESGTRRKGVDYASYYQGLWDCHGDQPDELSFQRGDLIRILSKEYNMYGWWVGELNSLVGIVPKEYLTTAFEVEER",−1.8075,–
"NQO2 (protein, UniProt P16083 1-231, looked up) Ribosyldihydronicotinamide …: MAGKKVLIVYAHQEPKSFNGSLKNVAVDELSRQGCTVTVSDLYAMNLEPRATDKDITGTLSNPEVFNYGVETHEAYKQRSLASDITDEQKKVREADLVIFQFPLYWFSVPAILKGWMDRVLCQGFAFDIPGFYDSGLLQGKLALLSVTTGGTAEMYTKTGVNGDSRYFLWPLQHGTLHFCGFKVLAPQISFAPEIASEEERKGMVAAWSQRLQTIWKEEPIPCTAHWHFGQ",–,1.0895
"PIK3AP1 (protein, UniProt Q6ZUJ8 1-805, looked up) Phosphoinositide 3-kinase …: MAASGVPRGCDILIVYSPDAEEWCQYLQTLFLSSRQVRSQKILTHRLGPEASFSAEDLSLFLSTRCVVVLLSAELVQHFHKPALLPLLQRAFHPPHRVVRLLCGVRDSEEFLDFFPDWAHWQELTCDDEPETYVAAVKKAISEDSGCDSVTDTEPEDEKVVSYSKQQNLPTVTSPGNLMVVQPDRIRCGAETTVYVIVRCKLDDRVATEAEFSPEDSPSVRMEAKVENEYTISVKAPNLSSGNVSLKIYSGDLVVCETVISYYTDMEEIGNLLSNAANPVEFMCQAFKIVPYNTETLDKLLTESLKNNIPASGLHLFGINQLEEEDMMTNQRDEELPTLLHFAAKYGLKNLTALLLTCPGALQAYSVANKHGHYPNTIAEKHGFRDLRQFIDEYVETVDMLKSHIKEELMHGEEADAVYESMAHLSTDLLMKCSLNPGCDEDLYESMAAFVPAATEDLYVEMLQASTSNPIPGDGFSRATKDSMIRKFLEGNSMGMTNLERDQCHLGQEEDVYHTVDDDEAFSVDLASRPPVPVPRPETTAPGAHQLPDNEPYIFKVFAEKSQERPGNFYVSSESIRKGPPVRPWRDRPQSSIYDPFAGMKTPGQRQLITLQEQVKLGIVNVDEAVLHFKEWQLNQKKRSESFRFQQENLKRLRDSITRRQREKQKSGKQTDLEITVPIRHSQHLPAKVEFGVYESGPRKSVIPPRTELRRGDWKTDSTSSTASSTSNRSSTRSLLSVSSGMEGDNEDNEVPEVTRSRSPGPPQVDGTPTMSLERPPRVPPRAASQRPPTRETFHPPPPVPPRGR",−1.7193,–
"TMPRSS15 (protein, UniProt P98073 2-784; P98073 785-1019, looked up) Enteropeptidase non-catalytic …: GSKRGISSRHHSLSSYEIMFAALFAILVVLCAGLIAVSCLTIKESQRGAALGQSHEARATFKITSGVTYNPNLQDKLSVDFKVLAFDLQQMIDEIFLSSNLKNEYKNSRVLQFENGSIIVVFDLFFAQWVSDENVKEELIQGLEANKSSQLVTFHIDLNSVDILDKLTTTSHLATPGNVSIECLPGSSPCTDALTCIKADLFCDGEVNCPDGSDEDNKMCATVCDGRFLLTGSSGSFQATHYPKPSETSVVCQWIIRVNQGLSIKLSFDDFNTYYTDILDIYEGVGSSKILRASIWETNPGTIRIFSNQVTATFLIESDESDYVGFNATYTAFNSSELNNYEKINCNFEDGFCFWVQDLNDDNEWERIQGSTFSPFTGPNFDHTFGNASGFYISTPTGPGGRQERVGLLSLPLDPTLEPACLSFWYHMYGENVHKLSINISNDQNMEKTVFQKEGNYGDNWNYGQVTLNETVKFKVAFNAFKNKILSDIALDDISLTYGICNGSLYPEPTLVPTPPPELPTDCGGPFELWEPNTTFSSTNFPNSYPNLAFCVWILNAQKGKNIQLHFQEFDLENINDVVEIRDGEEADSLLLAVYTGPGPVKDVFSTTNRMTVLLITNDVLARGGFKANFTTGYHLGIPEPCKADHFQCKNGECVPLVNLCDGHLHCEDGSDEADCVRFFNGTTNNNGLVRFRIQSIWHTACAENWTTQISNDVCQLLGLGSGNSSKPIFPTDGGPFVKLNTAPDGHLILTPSQQCLQDSLIRLQCNHKSCGKKLAAQDITPK Enteropeptidase catalytic …: IVGGSNAKEGAWPWVVGLYYGGRLLCGASLVSSDWLVSAAHCVYGRNLEPSKWTAILGLHMKSNLTSPQTVPRLIDEIVINPHYNRRRKDNDIAMMHLEFKVNYTDYIQPICLPEENQVFPPGRNCSIAGWGTVVYQGTTANILQEADVPLLSNERCQQQMPEYNITENMICAGYEEGGIDSCQGDSGGPLMCQENNRWFLAGVTSFGYKCALPNRPGVYARVSRFTEWIQSFLH",–,3.0633
"PRTG (protein, UniProt Q2VWP7 36-1150, looked up) Protogenin: FSELSFVKEPQDVTVTRKDPVVLDCQAHGEVPIKVTWLKNGAKMSENKRIEVLSNGSLYISEVEGRRGEQSDEGFYQCLAMNKYGAILSQKAHLALSTISAFEVQPISTEVHEGGVARFACKISSHPPAVITWEFNRTTLPMTMDRITALPTGVLQIYDVSQRDSGNYRCIAATVAHRRKSMEASLTVIPAKESKSFHTPTIIAGPQNITTSLHQTVVLECMATGNPKPIISWSRLDHKSIDVFNTRVLGNGNLMISDVRLQHAGVYVCRATTPGTRNFTVAMATLTVLAPPSFVEWPESLTRPRAGTARFVCQAEGIPSPKMSWLKNGRKIHSNGRIKMYNSKLVINQIIPEDDAIYQCMAENSQGSILSRARLTVVMSEDRPSAPYNVHAETMSSSAILLAWERPLYNSDKVIAYSVHYMKAEGLNNEEYQVVIGNDTTHYIIDDLEPASNYTFYIVAYMPMGASQMSDHVTQNTLEDVPLRPPEISLTSRSPTDILISWLPIPAKYRRGQVVLYRLSFRLSTENSIQVLELPGTTHEYLLEGLKPDSVYLVRITAATRVGLGESSVWTSHRTPKATSVKAPKSPELHLEPLNCTTISVRWQQDVEDTAAIQGYKLYYKEEGQQENGPIFLDTKDLLYTLSGLDPRRKYHVRLLAYNNIDDGYQADQTVSTPGCVSVRDRMVPPPPPPHHLYAKANTSSSIFLHWRRPAFTAAQIINYTIRCNPVGLQNASLVLYLQTSETHMLVQGLEPNTKYEFAVRLHVDQLSSPWSPVVYHSTLPEAPAGPPVGVKVTLIEDDTALVSWKPPDGPETVVTRYTILYASRKAWIAGEWQVLHREGAITMALLENLVAGNVYIVKISASNEVGEGPFSNSVELAVLPKETSESNQRPKRLDSADAKVYSGYYHLDQKSMTGIAVGVGIALTCILICVLILIYRSKARKSSASKTAQNGTQQLPRTSASLASGNEVGKNLEGAVGNEESLMPMIMPNSFIDAKGGTDLIINSYGPIIKNNSKKKWFFFQDSKKIQVEQPQRRFTPAVCFYQPGTTVLISDEDSPSSPGQTTSFSRPFGVAADTEHSANSEGSHETGDSGRFSHESNDEIHLSSVISTTPPNL",–,1.1026
